Among the data in publication PMC3167601 are Kd values, retold here.

Where a chain is given by its changes, count along the chain named.

Holding throughout (experiment): fluorescence anisotropy
The target in data set [1] is T1, IRF-3 DBD wild type (human, UniProt Q14653 1-113).
T1 sequence: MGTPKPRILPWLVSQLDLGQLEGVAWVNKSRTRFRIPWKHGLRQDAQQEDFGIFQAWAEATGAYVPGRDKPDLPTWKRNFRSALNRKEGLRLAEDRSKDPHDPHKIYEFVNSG

Data set [2] concerns the target T2, IRF-3 DBD H40A (human, UniProt Q14653 1-113, H40A).
T2 sequence: T1 sequence with H40A

For data set [3], the target named is T3, IRF-7 DBD H44A (mouse, UniProt P70434 1-134, H44A).
T3 sequence: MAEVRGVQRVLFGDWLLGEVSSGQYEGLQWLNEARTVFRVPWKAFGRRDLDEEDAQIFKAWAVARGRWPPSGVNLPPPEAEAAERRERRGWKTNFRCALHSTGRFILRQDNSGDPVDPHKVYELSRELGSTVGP

Data set [4] deals with T4, IRF-7 DBD wild type (mouse, UniProt P70434 1-134).
T4 sequence: T3 sequence with A44H

B1: PRDI 15-mer duplex (dsDNA)
DNA 1: GAGAAGTGAAAGTGG
DNA 2: CCACTTTCACTTCTC
Regarding B1, the dissociation constant Kd in data set [1] is 486 nM; in data set [2] it was 1710 nM; in data set [3], 532 nM; in data set [4] it was 630 nM.

Broadly, the Kd is the free concentration of one partner at which half of the binding sites on the other are occupied at equilibrium, for simple one-to-one binding.
